B1: Mab 1A2 (antibody, V domains shown)
VH: not shown
VL: DIELTQSPDFQSVTPKEKVTITCRASQSIGSSLHWYQQKPDQSPKLLIKYASQSFSGVPSRFSGSGSGTDFTLTINSLEAEDAATYYCHQSSSLPRTFGQGTKVEIKR
B2: Mab 1F10/7C5 (antibody, V domains shown)
VH: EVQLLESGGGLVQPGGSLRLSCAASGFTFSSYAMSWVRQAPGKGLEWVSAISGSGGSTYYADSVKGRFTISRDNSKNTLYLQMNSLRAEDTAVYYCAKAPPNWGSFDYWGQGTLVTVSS
VL: DIELTQSPLSLPVTLGQPASISCRSSQSLVYSDGNTYLNWFQQRPGQSPRRLIYKVSNWDSGVPDRFSGSGSGTDFTLKISRVEAEDVGVYYCMQGTHWPRTFGQGTKVEIKR
notes: also called Mab 7C5

Biological target: BSA (UniProt P02769 25-607)
Test: ELISA screen of hybridoma supernatants

Sequence of BSA (P02769 25-607 limits assumed): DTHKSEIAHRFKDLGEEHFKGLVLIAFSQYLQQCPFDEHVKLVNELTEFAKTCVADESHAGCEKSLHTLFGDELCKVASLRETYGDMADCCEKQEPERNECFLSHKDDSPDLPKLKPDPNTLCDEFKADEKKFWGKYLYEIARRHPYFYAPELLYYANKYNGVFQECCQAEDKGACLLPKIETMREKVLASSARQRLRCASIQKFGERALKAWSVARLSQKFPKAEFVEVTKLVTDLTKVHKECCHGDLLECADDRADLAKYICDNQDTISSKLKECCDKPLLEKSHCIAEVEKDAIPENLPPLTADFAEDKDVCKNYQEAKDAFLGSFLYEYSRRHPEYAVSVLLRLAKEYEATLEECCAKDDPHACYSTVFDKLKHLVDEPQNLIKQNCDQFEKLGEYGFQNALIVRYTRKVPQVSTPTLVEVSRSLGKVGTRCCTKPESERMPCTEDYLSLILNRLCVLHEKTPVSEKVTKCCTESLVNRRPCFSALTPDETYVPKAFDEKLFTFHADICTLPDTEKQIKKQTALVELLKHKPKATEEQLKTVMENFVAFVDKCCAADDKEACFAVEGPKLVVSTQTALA

| Binder | binding result |
| --- | --- |
| B1 | no binding |
| B2 | no binding |

From US20050014931A1 (ABGENIX, published 2005)
